Measured values as given in US20230074436A1 (DENALI THERAPEUTICS, published 2023).
No end group written: not given here. *: point of attachment. Biotin = O=C1N[C@H]2[C@H](CS[C@H]2CCCCC(=O)*)N1

Key:
[1] = target: T1, human alpha-synuclein monomer (human, UniProt P37840 1-140); test: direct ELISA, plate coated with 1 µg/mL recombinant human alpha-synuclein, antibody titrated, anti-rat HRP, A450
Protocol: 96-well Nunc plates were coated with 50 μL of recombinant human, mouse, or rat alpha-synuclein at a concentration of 1 μg/mL in PBS at 4° C. overnight. The plates were then washed three times with PBST and blocked with PBS containing 3% BSA at room temperature for 1 hour. Purified antibody was diluted by serial dilution methods, from 10 μg/mL to 0.6 ng/mL, and 50 μL of the antibody solution was added to the alpha-synuclein-coated wells. The plates were incubated for 1 hour at room temperature, then washed three times with PBST. Secondary detection antibody (goat anti-rat HRP (obtained from Southern Biotech)) was added 50 μL/well, 1:5,000 diluted in BSA-PBS solution. Plates were incubated for 1 hour at room temperature, then washed three times with PBST. Plates were subsequently developed with 50 μL/well of TMB substrate (Thermo Fisher) and quenched with 50 μL/well of 1 N sulfuric acid. The signal was quantified on a BioTek® plate reader at A450.

[2] = target: T1, human alpha-synuclein monomer; test: ELISA, plate coated with the peptide or protein, antibody titrated, anti-rat HRP, A450
Protocol: (§1) 96-well Nunc plates were coated with 1 pg/mL of the indicated synthetic peptide in PBS 50 μL/well overnight. The plates were washed three times with PBST, then blocked with 150 μL of 3% BSA in PBS for 1 hour. Purified antibody was diluted by serial dilution methods, from 10 pg/mL to 0.6 ng/ml, and 50 μL of the antibody solution was added to the peptide-coated wells. The plates were incubated for 1 hour at room temperature, then washed three times with PBST. Secondary detection antibody, goat anti-rat HRP (obtained from Southern Biotech) 1:5,000 diluted in BSA-PBS, was added to a concentration of 50 μL/well. Plates were incubated for one hour and washed three times with PBST. Plates were then developed with 50 μL/well of TMB substrate (obtained from Thermo Fisher) and quenched with 50 μL/well of 1 N sulfuric acid. The signal was quantified on a BioTek® plate reader at A450.

[3] = target: T2, alpha-synuclein peptide 95-140 (human); test: as above
T2 construct: synthetic peptide coated on plate
Protocol: as §1

[4] = target: T3, alpha-synuclein peptide 1-95 (human); test: as above
T3 construct: synthetic peptide coated on plate
Protocol: as §1

[5] = target: T4, alpha-synuclein peptide 1-61 (human); test: as above
T4 construct: synthetic peptide coated on plate
Protocol: as §1

[6] = target: alpha-synuclein peptide 1-112 (human); test: as above
Protocol: as §1

[7] = target: T5, asyn_113-127_122A (human); test: Ala-scan peptide ELISA, row G, run 2
T5 construct: substitution is already in the entry; also called pep11
T5 peptide: Biotin-LEDMPVDPDAEAYEM
Protocol: (§2) 96-well Nunc plates were coated with 50 μL per well of 1 μg/mL streptavidin (from Jackson Immuno Research Laboratory) in PBS at 4° C. overnight. The plates were washed three times with PBST, and blocked with PBS containing 3% BSA at room temperature for 1 hour. The N-terminal biotinylated peptides were dissolved in Milli Q water to a concentration of 2 mg/mL, then further diluted to a concentration of 2 μg/mL with PBS. 50 μl of the diluted peptide was applied to the streptavidin-coated plates and incubated at 4° C. overnight. 2 μg/mL of biotinylated human alpha-synuclein was used as the positive control. The plates were washed three times with PBST before use. Purified antibody was diluted by serial dilution methods, from 20 μg/mL to 1 ng/mL, and 50 μL of the antibody solution was added to the peptide-coated wells. The plates were incubated for 1 hour at room temperature, then washed three times with PBST. Secondary detection antibody (goat anti-rat HRP (obtained from Southern Biotech)) was added with 1:5,000 dilutions and incubated for 1 hour at room temperature, then washed three times with PBST. Plates were developed with 50 μL/well of TMB substrate (Thermo Fisher) and quenched with 50 μL/well of 1 N sulfuric acid. The signal was quantified on a BioTek® plate reader at A450. A parallel repeat was performed for each peptide in a separate plate.

[8] = target: T6, asyn_113-127 (human); test: Ala-scan peptide ELISA, row G, run 2
T6 construct: also called pep1
T6 peptide: Biotin-LEDMPVDPDNEAYEM
Protocol: as §2

[9] = target: T7, asyn_113-127_120A (human); test: Ala-scan peptide ELISA, row G, run 2
T7 construct: substitution is already in the entry; also called pep9
T7 peptide: Biotin-LEDMPVDADNEAYEM
Protocol: as §2

[10] = target: T8, asyn_113-127_113A (human); test: Ala-scan peptide ELISA, row G, run 2
T8 construct: substitution is already in the entry; also called pep2
T8 peptide: Biotin-AEDMPVDPDNEAYEM
Protocol: as §2

[11] = target: T9, asyn_113-127_114A (human); test: Ala-scan peptide ELISA, row G, run 2
T9 construct: substitution is already in the entry; also called pep3
T9 peptide: Biotin-LADMPVDPDNEAYEM
Protocol: as §2

[12] = target: T10, asyn_113-127_115A (human); test: Ala-scan peptide ELISA, row G, run 2
T10 construct: substitution is already in the entry; also called pep4
T10 peptide: Biotin-LEAMPVDPDNEAYEM
Protocol: as §2

[13] = target: T11, asyn_113-127_119A (human); test: Ala-scan peptide ELISA, row G, run 2
T11 construct: substitution is already in the entry; also called pep8
T11 peptide: Biotin-LEDMPVAPDNEAYEM
Protocol: as §2

[14] = target: biotinylated human alpha-synuclein (human, UniProt P37840 1-140); test: Ala-scan peptide ELISA, row G, run 2
Protocol: as §2

[15] = target: T12, asyn_113-127_123A (human); test: Ala-scan peptide ELISA, row G, run 2
T12 construct: substitution is already in the entry; also called pep12
T12 peptide: Biotin-LEDMPVDPDNAAYEM
Protocol: as §2

[16] = target: T13, asyn_113-127_126A (human); test: Ala-scan peptide ELISA, row G, run 2
T13 construct: substitution is already in the entry; also called pep16
T13 peptide: Biotin-LEDMPVDPDNEAYAM
Protocol: as §2

[17] = target: T14, asyn_113-127_118A (human); test: Ala-scan peptide ELISA, row G, run 2
T14 construct: substitution is already in the entry; also called pep7
T14 peptide: Biotin-LEDMPADPDNEAYEM
Protocol: as §2

[18] = target: T15, asyn_113-127_121A (human); test: Ala-scan peptide ELISA, row G, run 2
T15 construct: substitution is already in the entry; also called pep10
T15 peptide: Biotin-LEDMPVDPANEAYEM
Protocol: as §2

[19] = target: T16, asyn_113-127_117A (human); test: Ala-scan peptide ELISA, row G, run 2
T16 construct: substitution is already in the entry; also called pep6
T16 peptide: Biotin-LEDMAVDPDNEAYEM
Protocol: as §2

[20] = target: T17, asyn_113-127_116A (human); test: Ala-scan peptide ELISA, row G, run 2
T17 construct: substitution is already in the entry; also called pep5
T17 peptide: Biotin-LEDAPVDPDNEAYEM
Protocol: as §2

[21] = target: T18, asyn_113-127_127A (human); test: Ala-scan peptide ELISA, row G, run 2
T18 construct: substitution is already in the entry; also called pep17
T18 peptide: Biotin-LEDMPVDPDNEAYEA
Protocol: as §2

[22] = target: T19, asyn_113-127_124G (human); test: Ala-scan peptide ELISA, row G, run 2
T19 construct: substitution is already in the entry; also called pep13
T19 peptide: Biotin-LEDMPVDPDNEGYEM
Protocol: as §2

[23] = target: T20, asyn_113-127_125A (human); test: Ala-scan peptide ELISA, row G, run 2
T20 construct: substitution is already in the entry; also called pep15
T20 peptide: Biotin-LEDMPVDPDNEAAEM
Protocol: as §2

[24] = target: T21, asyn_113-127_124P (human); test: Ala-scan peptide ELISA, row G, run 2
T21 construct: substitution is already in the entry; also called pep14
T21 peptide: Biotin-LEDMPVDPDNEPYEM
Protocol: as §2

[25] = target: T7, asyn_113-127_120A; test: Ala-scan peptide ELISA, row H, run 2
Protocol: as §2

[26] = target: T9, asyn_113-127_114A; test: Ala-scan peptide ELISA, row H, run 2
Protocol: as §2

[27] = target: T11, asyn_113-127_119A; test: Ala-scan peptide ELISA, row H, run 2
Protocol: as §2

[28] = target: T12, asyn_113-127_123A; test: Ala-scan peptide ELISA, row H, run 2
Protocol: as §2

[29] = target: T13, asyn_113-127_126A; test: Ala-scan peptide ELISA, row H, run 2
Protocol: as §2

[30] = target: T14, asyn_113-127_118A; test: Ala-scan peptide ELISA, row H, run 2
Protocol: as §2

[31] = target: T17, asyn_113-127_116A; test: Ala-scan peptide ELISA, row H, run 2
Protocol: as §2

[32] = target: T20, asyn_113-127_125A; test: Ala-scan peptide ELISA, row H, run 2
Protocol: as §2

[33] = target: T21, asyn_113-127_124P; test: Ala-scan peptide ELISA, row H, run 2
Protocol: as §2

B1: 20H4 (antibody, rat IgG2b, V domains shown)
VH: AVQLVESGGGLVQPKESLKISCAASGFTFSNAAMYWVRQAPGKGLELLARIRTKPNNYATYHADSVKGRFTISRDDSQSMVYLHMGNLKTEDTAMYYCTADMATGDYWGPGVMVTVSS
VL: DIQMTQSPPVLSVSVGDRVTLSCKASQNINKNLDWYQQKHGEAPKPLIYSTNNLQTGVPSRFSGSGSGTDYTLTISSLQPEDVATYYCYQYKSAWTFGGGTKLELR
notes: also called clone 20H4; rat 20H4
EC50 (read off the curve) [1]: ~0.2 µg/mL
EC50 (read off the curve) [2]: ~0.2 µg/mL
EC50 (read off the curve) [3]: ~0.3 µg/mL
binding result [4]: no binding (tested: 10 µg/ml (1 on the log axis))
binding result [5]: no binding (tested: 10 µg/ml (1 on the log axis))
binding result [6]: no binding (tested: 10 µg/ml (1 on the log axis))
A450 [7]: 0.048 OD
A450 [8]: 0.089 OD
A450 [9]: 0.072 OD
A450 [10]: 0.095 OD
A450 [11]: 0.093 OD
A450 [12]: 0.057 OD
A450 [13]: 0.05 OD
A450 [14]: 0.152 OD
A450 [15]: 0.103 OD
A450 [16]: 0.101 OD
A450 [17]: 0.109 OD
A450 [18]: 0.097 OD
A450 [19]: 0.108 OD
A450 [20]: 0.101 OD
A450 [21]: 0.092 OD
A450 [22]: 0.095 OD
A450 [23]: 0.049 OD
A450 [24]: 0.048 OD
A450 [25]: 0.057 OD
A450 [26]: 0.066 OD
A450 [27]: 0.046 OD
A450 [28]: 0.068 OD
A450 [29]: 0.073 OD
A450 [30]: 0.071 OD
A450 [31]: 0.073 OD
A450 [32]: 0.049 OD
A450 [33]: 0.046 OD
